{"source": "patent US20040247614A1", "about": "(J DAVID GLADSTONE INSTITUTES, published 2004)", "binders": {"B1": {"name": "synthetic unacetylated Tat (other)", "chain": "MEPVDPRLEPWKHPGSQPKTACTTCYCKKCCFHCQVCFTTKALGISYGRKKRRQRRRPPQGSQTHQVSLSKQ", "notes": "range 1-72; also called nonacetylated Tat"}, "B2": {"name": "synthetic Tat protein containing a single acetylated lysine at position 50 (AcTat) (other)", "chain": "B1 chain", "modifications": "acetylated lysine at position 50 (K50)", "notes": "range 1-72; also called acetylated Tat; K50-acetylated Tat"}}, "target": "T1, GST alone (UniProt P08515 1-218 = GST)", "T1 construct": "Control in the GST pulldown", "T1 sequence (P08515 whole entry)": "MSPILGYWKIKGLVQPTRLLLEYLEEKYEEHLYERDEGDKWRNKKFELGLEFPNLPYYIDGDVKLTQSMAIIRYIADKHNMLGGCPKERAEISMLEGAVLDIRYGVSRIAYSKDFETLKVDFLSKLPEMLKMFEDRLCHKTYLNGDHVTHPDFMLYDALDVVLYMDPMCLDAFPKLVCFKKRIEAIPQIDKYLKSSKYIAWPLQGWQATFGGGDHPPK", "experiment": "GST pulldown, immunoblot with anti-Tat mAb", "data": [{"binder": "B1", "values": [{"measurement": "binding result", "value": "no binding"}]}, {"binder": "B2", "values": [{"measurement": "binding result", "value": "no binding"}]}]}
